Measurements reported in publication PMC6176576.

Molecular target: mtPaf1 (subunit of the four-subunit mtPaf1 complex) (Myceliophthora thermophila)
Assay: co-purification, SDS/PAGE

stoichiometry N	Substance
1	mtCdc73 (subunit of the four-subunit mtPaf1 complex) (natural protein)
1	mtLeo1 (subunit of the four-subunit mtPaf1 complex) (natural protein)
